Experimental data taken from the supplement of paper PMC9112550, “Optimization of the antimicrobial peptide Bac7 by deep mutational scanning” (BMC Biology, 2022).

System: Escherichia coli TOP10
Experiment: shrunken log2 fold change of peptide-encoding DNA abundance (4.5 h post-induction vs induction); higher = less antimicrobial activity (less host growth inhibition)
Conditions: time post-induction: 4.5 h; library: site-saturation at positions 5, 18, 19, 20
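Note: peptides expressed intracellularly from a pBAD plasmid library in pooled LB shake-flask culture, induced with 0.3% L-arabinose, DNA abundance read by NGS, three biological replicates, DESeq2 with apeglm shrinkage.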

In the case of RRIRCRPPRLPRPRPRPSTHPRP, the “shrunken log2 fold change” value is reported as -0.454.
With RRIRMRPPRLPRPRPRPVWRPRP the “shrunken log2 fold change” value was 0.947.
In the case of RRIRCRPPRLPRPRPRPWDKPRP, the “shrunken log2 fold change” value is reported as -0.0809.
RRIRPRPPRLPRPRPRPMCFPRP was tested, and the “shrunken log2 fold change” value was -0.405.
With RRIRTRPPRLPRPRPRPTYNPRP the “shrunken log2 fold change” value was -0.593.
For RRIRERPPRLPRPRPRPMKGPRP, the “shrunken log2 fold change” value was -0.0658.
With RRIRGRPPRLPRPRPRPWICPRP the “shrunken log2 fold change” value was -0.00439.
RRIRNRPPRLPRPRPRPKMFPRP was tested, and the “shrunken log2 fold change” value was -0.00426.
With RRIRDRPPRLPRPRPRPWRFPRP the “shrunken log2 fold change” value was -0.277.
In the case of RRIRLRPPRLPRPRPRPRRKPRP, the “shrunken log2 fold change” value is reported as -0.00224.
RRIRARPPRLPRPRPRPTYNPRP was tested, and the “shrunken log2 fold change” value was -0.121.
With RRIRDRPPRLPRPRPRPIDQPRP the “shrunken log2 fold change” value was -0.0222.
With RRIRTRPPRLPRPRPRPASPPRP the “shrunken log2 fold change” value was 0.209.
With RRIRARPPRLPRPRPRPCVWPRP the “shrunken log2 fold change” value was 0.544.
For RRIRSRPPRLPRPRPRPTTTPRP, the “shrunken log2 fold change” value was 0.0739.
For RRIRFRPPRLPRPRPRPRPAPRP, the “shrunken log2 fold change” value was 0.807.
In the case of RRIRARPPRLPRPRPRPPLVPRP, the “shrunken log2 fold change” value is reported as 0.626.
In the case of RRIRTRPPRLPRPRPRPCQCPRP, the “shrunken log2 fold change” value is reported as -0.195.
In the case of RRIRQRPPRLPRPRPRPLWRPRP, the “shrunken log2 fold change” value is reported as 3.25.
With RRIRDRPPRLPRPRPRPPATPRP the “shrunken log2 fold change” value was 0.75.
RRIRLRPPRLPRPRPRPYFDPRP was tested, and the “shrunken log2 fold change” value was -0.255.
With RRIRERPPRLPRPRPRPACKPRP the “shrunken log2 fold change” value was 0.104.
RRIRYRPPRLPRPRPRPISMPRP was tested, and the “shrunken log2 fold change” value was 0.0342.
RRIRDRPPRLPRPRPRPHRKPRP was tested, and the “shrunken log2 fold change” value was 0.00895.
For RRIRFRPPRLPRPRPRPVMPPRP, the “shrunken log2 fold change” value was -0.12.
For RRIRSRPPRLPRPRPRPHTTPRP, the “shrunken log2 fold change” value was -0.0736.
For RRIRMRPPRLPRPRPRPMQFPRP, the “shrunken log2 fold change” value was 0.167.
RRIRARPPRLPRPRPRPKWGPRP was tested, and the “shrunken log2 fold change” value was 0.418.
RRIRLRPPRLPRPRPRPEKLPRP was tested, and the “shrunken log2 fold change” value was -0.00411.
In the case of RRIRNRPPRLPRPRPRPWTCPRP, the “shrunken log2 fold change” value is reported as 0.0493.
With RRIRLRPPRLPRPRPRPMNYPRP the “shrunken log2 fold change” value was -0.0583.
In the case of RRIRERPPRLPRPRPRPNKRPRP, the “shrunken log2 fold change” value is reported as -0.164.
For RRIRLRPPRLPRPRPRPQSPPRP, the “shrunken log2 fold change” value was -0.0515.
RRIRDRPPRLPRPRPRPKKRPRP was tested, and the “shrunken log2 fold change” value was 0.403.
In the case of RRIRRRPPRLPRPRPRPTAPPRP, the “shrunken log2 fold change” value is reported as 0.583.
For RRIRARPPRLPRPRPRPIIPPRP, the “shrunken log2 fold change” value was -0.256.
In the case of RRIRYRPPRLPRPRPRPANWPRP, the “shrunken log2 fold change” value is reported as -0.0751.
In the case of RRIRWRPPRLPRPRPRPHNLPRP, the “shrunken log2 fold change” value is reported as -0.414.
In the case of RRIRLRPPRLPRPRPRPCWSPRP, the “shrunken log2 fold change” value is reported as -0.172.
In the case of RRIRKRPPRLPRPRPRPTFQPRP, the “shrunken log2 fold change” value is reported as 0.05.
In the case of RRIRWRPPRLPRPRPRPQMGPRP, the “shrunken log2 fold change” value is reported as -0.124.
With RRIRQRPPRLPRPRPRPVFWPRP the “shrunken log2 fold change” value was 0.113.
In the case of RRIRVRPPRLPRPRPRPSTHPRP, the “shrunken log2 fold change” value is reported as -0.573.
In the case of RRIRHRPPRLPRPRPRPDVQPRP, the “shrunken log2 fold change” value is reported as 0.0591.
With RRIRERPPRLPRPRPRPLLPPRP the “shrunken log2 fold change” value was -0.119.
With RRIRPRPPRLPRPRPRPKMQPRP the “shrunken log2 fold change” value was 0.132.
With RRIRERPPRLPRPRPRPMFKPRP the “shrunken log2 fold change” value was -0.204.
RRIRTRPPRLPRPRPRPAKLPRP was tested, and the “shrunken log2 fold change” value was 0.108.
With RRIRGRPPRLPRPRPRPVGPPRP the “shrunken log2 fold change” value was 0.762.
RRIRPRPPRLPRPRPRPRDHPRP was tested, and the “shrunken log2 fold change” value was 0.279.
For RRIRVRPPRLPRPRPRPSEFPRP, the “shrunken log2 fold change” value was -0.233.
RRIRARPPRLPRPRPRPCPIPRP was tested, and the “shrunken log2 fold change” value was -0.244.
RRIRIRPPRLPRPRPRPVFKPRP was tested, and the “shrunken log2 fold change” value was -0.25.
In the case of RRIRKRPPRLPRPRPRPTLCPRP, the “shrunken log2 fold change” value is reported as 0.403.
RRIRPRPPRLPRPRPRPCWIPRP was tested, and the “shrunken log2 fold change” value was -0.456.
In the case of RRIRARPPRLPRPRPRPIHYPRP, the “shrunken log2 fold change” value is reported as -0.241.
In the case of RRIRQRPPRLPRPRPRPFPNPRP, the “shrunken log2 fold change” value is reported as -0.0586.
In the case of RRIRFRPPRLPRPRPRPMPMPRP, the “shrunken log2 fold change” value is reported as -0.00868.
RRIRGRPPRLPRPRPRPSVEPRP was tested, and the “shrunken log2 fold change” value was 0.651.
RRIRRRPPRLPRPRPRPFMWPRP was tested, and the “shrunken log2 fold change” value was 0.00755.
RRIRSRPPRLPRPRPRPAGSPRP was tested, and the “shrunken log2 fold change” value was -0.209.
With RRIRYRPPRLPRPRPRPPHHPRP the “shrunken log2 fold change” value was -0.668.
With RRIRFRPPRLPRPRPRPFDTPRP the “shrunken log2 fold change” value was -0.486.
For RRIRWRPPRLPRPRPRPERVPRP, the “shrunken log2 fold change” value was 0.447.
RRIRGRPPRLPRPRPRPHMCPRP was tested, and the “shrunken log2 fold change” value was -0.01.
In the case of RRIRQRPPRLPRPRPRPHRSPRP, the “shrunken log2 fold change” value is reported as -0.00875.
In the case of RRIRLRPPRLPRPRPRPTPAPRP, the “shrunken log2 fold change” value is reported as 0.306.
RRIRQRPPRLPRPRPRPQVCPRP was tested, and the “shrunken log2 fold change” value was 0.0103.
In the case of RRIRMRPPRLPRPRPRPQIVPRP, the “shrunken log2 fold change” value is reported as -0.163.
For RRIRGRPPRLPRPRPRPHENPRP, the “shrunken log2 fold change” value was 0.446.
With RRIRFRPPRLPRPRPRPDDEPRP the “shrunken log2 fold change” value was 0.066.
In the case of RRIRQRPPRLPRPRPRPPRHPRP, the “shrunken log2 fold change” value is reported as 0.644.
RRIRSRPPRLPRPRPRPVCYPRP was tested, and the “shrunken log2 fold change” value was -0.268.
For RRIRQRPPRLPRPRPRPPVPPRP, the “shrunken log2 fold change” value was 0.197.
With RRIRHRPPRLPRPRPRPNGDPRP the “shrunken log2 fold change” value was -0.0512.
In the case of RRIRWRPPRLPRPRPRPPWMPRP, the “shrunken log2 fold change” value is reported as 0.371.
With RRIRNRPPRLPRPRPRPFFCPRP the “shrunken log2 fold change” value was 0.118.
For RRIRGRPPRLPRPRPRPLHFPRP, the “shrunken log2 fold change” value was 0.339.
RRIRIRPPRLPRPRPRPAVLPRP was tested, and the “shrunken log2 fold change” value was 0.0102.
For RRIRGRPPRLPRPRPRPVRDPRP, the “shrunken log2 fold change” value was 0.401.
RRIRGRPPRLPRPRPRPHYCPRP was tested, and the “shrunken log2 fold change” value was 0.167.
RRIRMRPPRLPRPRPRPPYDPRP was tested, and the “shrunken log2 fold change” value was 0.0745.
RRIRFRPPRLPRPRPRPMAHPRP was tested, and the “shrunken log2 fold change” value was 0.0587.
In the case of RRIRYRPPRLPRPRPRPHTIPRP, the “shrunken log2 fold change” value is reported as -0.852.
In the case of RRIRCRPPRLPRPRPRPPAMPRP, the “shrunken log2 fold change” value is reported as 0.241.
For RRIRLRPPRLPRPRPRPYWDPRP, the “shrunken log2 fold change” value was -0.195.
RRIRSRPPRLPRPRPRPMFSPRP was tested, and the “shrunken log2 fold change” value was -0.49.
In the case of RRIRTRPPRLPRPRPRPYNKPRP, the “shrunken log2 fold change” value is reported as -1.03.
For RRIRKRPPRLPRPRPRPEGAPRP, the “shrunken log2 fold change” value was 1.54.
RRIRGRPPRLPRPRPRPDETPRP was tested, and the “shrunken log2 fold change” value was 0.349.
RRIRARPPRLPRPRPRPPRPPRP was tested, and the “shrunken log2 fold change” value was 1.
For RRIRVRPPRLPRPRPRPMPSPRP, the “shrunken log2 fold change” value was 0.333.
With RRIRVRPPRLPRPRPRPNATPRP the “shrunken log2 fold change” value was 0.172.
For RRIRWRPPRLPRPRPRPHQLPRP, the “shrunken log2 fold change” value was 0.117.
With RRIRGRPPRLPRPRPRPWERPRP the “shrunken log2 fold change” value was 0.0531.
With RRIRQRPPRLPRPRPRPYRIPRP the “shrunken log2 fold change” value was -0.111.
With RRIRDRPPRLPRPRPRPICKPRP the “shrunken log2 fold change” value was 0.00282.
For RRIRWRPPRLPRPRPRPAFCPRP, the “shrunken log2 fold change” value was 0.143.
RRIRHRPPRLPRPRPRPHKSPRP was tested, and the “shrunken log2 fold change” value was -0.337.
With RRIRNRPPRLPRPRPRPRLQPRP the “shrunken log2 fold change” value was 0.0236.
In the case of RRIRFRPPRLPRPRPRPKFHPRP, the “shrunken log2 fold change” value is reported as -0.42.
With RRIRGRPPRLPRPRPRPVFLPRP the “shrunken log2 fold change” value was -0.0506.
RRIRQRPPRLPRPRPRPLKKPRP was tested, and the “shrunken log2 fold change” value was -0.15.
With RRIRQRPPRLPRPRPRPAMCPRP the “shrunken log2 fold change” value was 0.171.
For RRIRLRPPRLPRPRPRPCKHPRP, the “shrunken log2 fold change” value was -0.0106.
For RRIRYRPPRLPRPRPRPEGSPRP, the “shrunken log2 fold change” value was -0.0779.
With RRIRIRPPRLPRPRPRPVWQPRP the “shrunken log2 fold change” value was 0.536.
RRIRMRPPRLPRPRPRPMMQPRP was tested, and the “shrunken log2 fold change” value was -0.00112.
With RRIRTRPPRLPRPRPRPCRDPRP the “shrunken log2 fold change” value was -0.118.
In the case of RRIRKRPPRLPRPRPRPYWIPRP, the “shrunken log2 fold change” value is reported as -0.0363.
In the case of RRIRYRPPRLPRPRPRPMANPRP, the “shrunken log2 fold change” value is reported as -0.223.
With RRIRHRPPRLPRPRPRPLKRPRP the “shrunken log2 fold change” value was -0.00686.
For RRIRTRPPRLPRPRPRPTKMPRP, the “shrunken log2 fold change” value was -0.355.
RRIRHRPPRLPRPRPRPNKSPRP was tested, and the “shrunken log2 fold change” value was -0.252.
In the case of RRIRTRPPRLPRPRPRPYDQPRP, the “shrunken log2 fold change” value is reported as -0.241.
For RRIRVRPPRLPRPRPRPMEAPRP, the “shrunken log2 fold change” value was 0.0665.
With RRIRIRPPRLPRPRPRPWCFPRP the “shrunken log2 fold change” value was -0.596.
With RRIRTRPPRLPRPRPRPKKCPRP the “shrunken log2 fold change” value was -0.0193.
With RRIRCRPPRLPRPRPRPFRMPRP the “shrunken log2 fold change” value was -0.113.
With RRIRGRPPRLPRPRPRPDGCPRP the “shrunken log2 fold change” value was 0.792.
RRIRGRPPRLPRPRPRPPSYPRP was tested, and the “shrunken log2 fold change” value was 0.326.
RRIRMRPPRLPRPRPRPVTTPRP was tested, and the “shrunken log2 fold change” value was 0.107.
For RRIRMRPPRLPRPRPRPAWEPRP, the “shrunken log2 fold change” value was 0.655.
With RRIRLRPPRLPRPRPRPYSTPRP the “shrunken log2 fold change” value was -1.09.
With RRIRARPPRLPRPRPRPTMYPRP the “shrunken log2 fold change” value was -0.154.
